{"source": "IntAct's records for PubMed 16511560", "parents": {"B1": {"name": "Protein Mdm4 (Homo sapiens), O15151 (parent)", "chain": "MTSFSTSAQCSTSDSACRISPGQINQVRPKLPLLKILHAAGAQGEMFTVKEVMHYLGQYIMVKQLYDQQEQHMVYCGGDLLGELLGRQSFSVKDPSPLYDMLRKNLVTLATATTDAAQTLALAQDHSMDIPSQDQLKQSAEESSTSRKRTTEDDIPTLPTSEHKCIHSREDEDLIENLAQDETSRLDLGFEEWDVAGLPWWFLGNLRSNYTPRSNGSTDLQTNQDVGTAIVSDTTDDLWFLNESVSEQLGVGIKVEAADTEQTSEEVGKVSDKKVIEVGKNDDLEDSKSLSDDTDVEVTSEDEWQCTECKKFNSPSKRYCFRCWALRKDWYSDCSKLTHSLSTSDITAIPEKENEGNDVPDCRRTISAPVVRPKDAYIKKENSKLFDPCNSVEFLDLAHSSESQETISSMGEQLDNLSEQRTDTENMEDCQNLLKPCSLCEKRPRDGNIIHGRTGHLVTCFHCARRLKKAGASCPICKKEIQLVIKVFIA"}}}
{"variants_of": "B1", "settings": "with ima4_human KPNA3, O00505"}
{"variant": "K468E", "effect of a mutation on the interaction": "disrupting interaction"}
